From the domain aggregation screens of Martell et al. (2025)

Test: soluble fraction after stress (log2 fold change); higher = more stays soluble; pooled small domains, quantitative proteomics
Details: stress: 75 degC
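Further: 20 min heating vs room temperature control held 20 min.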

HMDFYVILGVDRAASLSDVKRAYRRLARKHHPDINPGDPESDAFFMRVTEAYETLVDPDRRQEYDEHG
soluble fraction (log2): -0.75

HMDGEFINLKNRAGTEIEARILNYQNGQVKLERKDGVTFVVSISMFDAKSVIAINHKIAEIIDT
soluble fraction (log2): -2.28

HMDGIDALEPLMRRVFEALPQRRSMTIERAAVAAGLDEESVKIALVRLQLEGYVANDERGWHRSKSPH
soluble fraction (log2): -2.48

HMDGIGLRVRMIREGVGLTQKQLAEHLGMQRTALVQVEAGSRKLSASELIGVARFFNITVEQFLDPEK
soluble fraction (log2): -3.5

HMDGIPVPDVKGTVEAEATATLKNSGFEVTKTQDFSDTVEAGKVISQNPAGGSSAASGSSVTLVISQGPN
soluble fraction (log2): -0.0786

HMDGISANAVKALIESLIAGEDKRKPLSDQAMSDRLALQGIVLARRTVAKYREELNFPPAHQRKQK
soluble fraction (log2): -1.41

HMDGLPYPEAAEEPIAQVARNLGMDATRVSIALQEAKLIFRNLDETLAEIAANNGTTPQVVYDAIRHLEPP
soluble fraction (log2): -0.248

HMDGLTEQQADDILAFISIKGTNAEVLAALENYAGRNETFDTGLSELKVVASNLAAFGMPEENFVVDL
soluble fraction (log2): 0.283

HMDGPGDRLLIAIQENSMTQKKFAQLIGMSPNGLNSIIKGKKRLSRVLAIATERLTGVRADWILQNEQPK
soluble fraction (log2): -0.0913

HMDGQPLSERQQEILRWVAEGLSNREIGERLNITPNTVRDHLSEVMRRLEVSNRTSAVSTAFHLGLLP
soluble fraction (log2): -0.0654

HMDGRIRFRHAALHDPDVAARLHDYLTTSLPGVRSARVNSQTGSLLLEYDPEVLDRSTLLDLAARAESLL
soluble fraction (log2): -0.493

HMDGRSLSHATLEEIRIRAVQRVEAGESPEVVVKALGFSRPRIYEWLALYREGGLEALRAKPV
soluble fraction (log2): -1.1

HMDGSEYAGTVRLGDGTLQPVPRFETSNSETPKYLYLVMDVTHDPPVYILEHESAELKSVLGGLVLIGSYS
soluble fraction (log2): 0.0157

HMDGTVRGKTTFQELLDWGVPQERIEAVLGGPIPAPGVVIKDYVTAQGKEFSAVRDALQAEVDAVLK
soluble fraction (log2): 0.144

HMDGVLLDHLDGFVTTRRGVEAWLEQPTSFNKPSILLVAADGESTRRAIPSIAFGYDFASRHDIPAYDAG
soluble fraction (log2): -0.44

HMDGVPPAGSRIRLTVSTQVGDKEFEGTLVPPAGVDLLTLKLANGYNLSHSIADVREVVLIEEGLQGEEP
soluble fraction (log2): -0.191

HMDGVSLLFKLMETLPEQQKTILHLRDVEQLEFAEIAKITNTSQANVRVALSRARKKIKDLLLKQY
soluble fraction (log2): -2.52

HMDGVYLKSLKQTEQHIHWSGYAQSNAWVSTLMRNLDASPWFESPLLIEIKAATINNSRSNEFDLNVRL
soluble fraction (log2): 0.0974

HMDGYTVYTNWGSDTNVARSDQQIQSQIPQLSGATIVGVWTKPIATGGTSYKIRYRTNSGAFTEIDVDQ
soluble fraction (log2): -0.256

HMDHKTKLQEVLQKSGDVFIEYRLIKEEGPAHERIFWIEVYVDDQLIGTGQGKSKKLAEQAAAENALAALE
soluble fraction (log2): -1.21

HMDIEHREMKLQKLVITADSPLVGKTLKESNVRQRYNFMVVGVEEGQKNLTMINPNRRFEVGDIVWVVGEE
soluble fraction (log2): -0.743

HMDIFGREAEVEQILQEVRFGDDPHYRLSIGILPVTGHAGAGKTALVRFIFHHEVARAEFTVRMWVHV
soluble fraction (log2): 0.154

HMDIGKNIQTIRYANKLTQDQVIAKLNLMGISMSKSTYAKLETNRMNIKVSELVALAKIFHTDINAF
soluble fraction (log2): -2.62

HMDIGTYTVTASALNIRQYPTASSAKTGSYPNGSIVTIYEYLTDGSWGRTDDGWISMNYVSRRY
soluble fraction (log2): -1.93

HMDIHSEEYILGQNIRKYRLRLGWSQADLSNAVDIDRADISKYENGAKGIMSSTLLRKFAKALGVSMDALM
soluble fraction (log2): -3.32

HMDILPRMVASEMRAVGVPPERMTREEKGTVIRNLMNAGIHQMKGAVVEIARQLHLSEPTVYRYIKREKG
soluble fraction (log2): -0.664

HMDINMELGKNIRRLRKLNNLTQQSLANQMNRSKTLIALWEKGERDPSSIDLKRLSEIFNVRADDIIG
soluble fraction (log2): -0.799

HMDIRMLLSDREEEIMILLSKGLSISEAANRMQIGQASAATYLNRARRKLKAETVRQAVAIWTGD
soluble fraction (log2): -1.87

HMDISAFDTEFIISKFGGIRPMAQKLGVPVSTVQGWKQRQTIPQNRMGDILEAAKNYNLELTP
soluble fraction (log2): -0.112

HMDISPAAKQRLALIQPLLEKNAEAITDRKLRNAVAKDIANNQNTTVRRVLRLYYRYLATGQVM
soluble fraction (log2): 0.192

HMDIVIPIQVKNVSSGEVLDFPSIRAAARDLKFPKTTISLGVRYAGEKAYKGFVMRYRSDDPWPIVQES
soluble fraction (log2): -2

HMDIYLDEVNRKILHLLSQGIKTRSLREYINLSMSAIEKRKKHMKELFLVEDGKDETLLNEARNKGF
soluble fraction (log2): -1.88

HMDIYLTAFKTTSNQVTLNGIARSDLIISEFMRDIRDAKLFGEPVLQVIQNKNLNNVQARVFELVVPL
soluble fraction (log2): 0.115

HMDKATMRWEQIEKFLETHPYIMNADVRALFNVSAATANRILATLTTEGKLVKYREGGHWAYKY
soluble fraction (log2): -1.1

HMDKELILLWDRVKSKVWQMDIQDSQVANWFQRNYHLTVRLRDFDPPVPPDKFTAEQLASFIKDIERHT
soluble fraction (log2): -2.41

HMDKGMQTMIDNLHKNTGKTLEEWIALVNRANFAKHGEVISFLKEKHGLTHGYANLVAHRLK
soluble fraction (log2): 0.863

HMDKINQEAIEDEAGLWLAKIDGRQLAQEEVRELIAWMRRSDFHREYLITLARQWDGMAALNKLATLFP
soluble fraction (log2): -2.08

HMDKLFNRQTLGGVELTQKQIEDLNAGKAIFVEGMQRKDGEVFSSYVKLDEATGRPSYTRYNPDSP
soluble fraction (log2): 0.933

HMDKLSYALGLSMGHNFLGSGIKSLNVEDFAKGVEAVYKQEKPEISFDEAKKIINEFFSNLQDEIAE
soluble fraction (log2): -1.01

HMDKNLQYADTPKGKLREYIKNLPNGSTVNRQKLAEEFGIKKQSMGTVTEVFQEFPDKNFKFVNP
soluble fraction (log2): -0.0476

HMDKPVIEDVSFDDLAYMVGERVIIRTHLRSTRDGELKSFNRAGILVSLRNRPGMELEIPRSTVASAQVVW
soluble fraction (log2): -2.39

HMDKQEKIHKKKIIILEALKRLLQNDVYSRITVQAVADEAGFSKGGLLHYFPTKEEMYIEFMEY
soluble fraction (log2): -0.103

HMDKRYYYRILGLVGEPTRDQIEAAYETRIAKLRSSDYGDDPLYARRKISEVTMAYKVLTGS
soluble fraction (log2): -1.56

HMDKSFLQSLHLIALGIVKNQMDPWELVNGWVEYYLKNKDKYIDHPNLKAVAVLKMKGLFIDHFRKS
soluble fraction (log2): -5.84

HMDKSHYEELGVSRTATHAEIRRAYRHLMRTLHPDSNDGRVDAVRITKVNEAWNVLSQSSSRNAYDKSQV
soluble fraction (log2): -0.235

HMDKTTIKNEQKKQILIFAEMNLFFKAKDVAELLGLQASRARYLLQELVKDGKIQGIGNNKGRKYQLI
soluble fraction (log2): -0.729

HMDKVEQLMQNPVIQEKMSEGDRELLRNASLVVLGRLEDDGSIIQRFVELFGEEAYERLKSELM
soluble fraction (log2): -0.0149

HMDLDIGSVLQASRGEKKISLRQLAERTGLTASMLSQIERNLVNPSINTLKVIAAALEIPMYKFFMG
soluble fraction (log2): -1.17

HMDLEMLEVEDTIKDLLSQHQKINAIKYYRNYMSEQLNVDMGLRQAKDTIDAIGRGATVDLSVGY
soluble fraction (log2): -0.0747

HMDLIEVLAQDTIKKIYNTYVAYKNKVDVFYVAFSGGKDSIVTLDLVQRTLPHNEFKVLFGDTGM
soluble fraction (log2): 0.243

HMDLIFQKGDLVFSTEHNQRGIFYEYLEQGQAKISIEKQFFVVAARRLQLLTKREVLYPAGYDLDQLFV
soluble fraction (log2): -2.21

HMDLKENQHILQISNKGVQMGNVLKDLIIQTLNITNGNQIKAAKLLAISRAKLRYRIEQLGINISGKNI
soluble fraction (log2): 0.000197

HMDLKHNQITMRELLRNKQAYLLLYKEFPMFMTPAILQNIRPLTLQQIIQMVRPYISRPKLNMLLEQLENI
soluble fraction (log2): 0.164

HMDLMQRVIIVRPVMQGDYLTRAHLGLQTLSRNGGGGFTDIDDLVGRRAKKSLRAGLVVHNRHL
soluble fraction (log2): -0.813

HMDLPAEFSKPELETLFKRGKQSGELSLTEVRDALEAAQLPNKKTQTKVLKVLSDNAIHVLMDG
soluble fraction (log2): 0.0744

HMDLPDFTSRERDILARVVQGDSNERIAASLGVSVSTVKTHIGNILRKTGQTNRVRLIVWATRHL
soluble fraction (log2): -2.58

HMDLPDYYFRVRENGAVVFRVGTENRQRRIEMVEIATVNVKNGNIKPHGEVDLTKADRLAIGEWLAARQAQ
soluble fraction (log2): -1.54

HMDLPRQSQYQALVVSYARRAGIDEAEEDLLAAFEVWRMRHNHDLAGGRTARDFILAYLPQYQRHKE
soluble fraction (log2): -1.98

HMDLQNIQNQLNTEFAKSDTRIIFWFDDKGEYEDEVSELQLGDVKLHILDGLNWFYSKYLLNEA
soluble fraction (log2): -0.141

HMDLRAPKPIKEMGEEYIKLYQYLRKGESENIVMSKMNISLDDYDYMRSEIEDKLSLYNMLDLLRKP
soluble fraction (log2): -0.978

HMDLRVKRTNKMIMEAFIHLVEQKGYDNITVQEIADEAMINRATFYAHFKDKQDLYDHIFKQAI
soluble fraction (log2): -0.902

HMDLSPEQAELAAIRGELGIKIDDYALALNIPRDRLTSYLYGRANVPAEVLISARELRYASSA
soluble fraction (log2): -0.0206

HMDMQNIQKGLSAIEPGRTFSREEYYAAIQNGSEMLLKEDALAYSLRKSLSDGDIVRVSWNQYAIP
soluble fraction (log2): -0.107

HMDMTPEEFLAWARHKPFGDPFPKTQTVTFLVPLLGVSRTNIFTWISGKVNPSKTSLLLMEALKRENR
soluble fraction (log2): -0.493

HMDNEIEQIVEDLNLTLSSLKYTKNQIESILPLIIKEIDDFKKKEKNISFENLLKLAMNHLDND
soluble fraction (log2): -0.38

HMDNEIRIPLPSLQRDGFSIGTREDDGSQLVRIMSAGSFGGMIRSFRLPEGMRIEGAKWEGEIVSIRL
soluble fraction (log2): -0.00847

HMDNEVTIAVQVNGKLRDKLIVALDTPNEKIEQLALALPKVIQNTSGLTVRKVIVIPNRLVNIVA
soluble fraction (log2): -1.92

HMDNIKRGEMFYISRGGASYSGSEQHSDRPAVVVSNDKNNENSNVVEVVYMTTQPKTDLPTHVTVR
soluble fraction (log2): 0.0515

HMDNLKELDEILETYGKKKGYLITILQKAQDAYGYISIDIMNRISEFTGIKVAKIYGVATFYAQFRL
soluble fraction (log2): 0.0785

HMDNPLSQQEKRILQLISLGKTNQEIADILYLSNGTVRNYISSILNKLSANNRVEAARIAEEHGW
soluble fraction (log2): -0.755

HMDNPNVMAQVKSLLASKGLSEQEVKERLKAKGLNIDAMSDAEIAQNRSVIEQTIAELEAEKKKAG
soluble fraction (log2): 0.205

HMDNPYEVFIPNSYIGQRLDQTLASLFPQFSRSRLQNWLASGNLLVNGKIVKPKTKILGGEQINILDPYN
soluble fraction (log2): -0.608

HMDNTFEEVKEKLLDLLKERPLTPAEVSKRMEEDKNILAQVIQYLLEEEIIKTEDGMLSKVIG
soluble fraction (log2): -0.038

HMDNWYIAFNSFLSQNKLTAKNVSELTGLSKPTIDSYKQGKRKPTDENMQIIKDKLGFNISEILYN
soluble fraction (log2): -0.0615

HMDPDDEILINIMTKLLTEKQIIIKNKEIFNFLLKRINRTYEEVYNLINKMDKLSLEKKKQLTIPSIKEL
soluble fraction (log2): -1.71

HMDPEEETLKNMQRMLQDSGPLKKTEFSLLAKSLGIAEKKARKLIDRGRGRFWTVESGEQKNTQLVTPIQ
soluble fraction (log2): -0.108

HMDPERVVGQTGIVHLRIPARQHNTGKVMIEVQGSLREFDAVSEAEEIPTGTPILIVGRTEEGVFIAQPF
soluble fraction (log2): -0.286
